The record followed here is patent US20180104312A1 (Eli Lilly, published 2018).

No end group written: not given here.

Test [1] has as its target T1, human Glucagon-Like Peptide-1 receptor (human, UniProt P43220 24-463). Briefly: cell-based or functional assay.
For test [2], the target named is T2, human glucose-dependent insulinotropic polypeptide receptor (human, UniProt P48546 22-466).
T2 sequence (looked up): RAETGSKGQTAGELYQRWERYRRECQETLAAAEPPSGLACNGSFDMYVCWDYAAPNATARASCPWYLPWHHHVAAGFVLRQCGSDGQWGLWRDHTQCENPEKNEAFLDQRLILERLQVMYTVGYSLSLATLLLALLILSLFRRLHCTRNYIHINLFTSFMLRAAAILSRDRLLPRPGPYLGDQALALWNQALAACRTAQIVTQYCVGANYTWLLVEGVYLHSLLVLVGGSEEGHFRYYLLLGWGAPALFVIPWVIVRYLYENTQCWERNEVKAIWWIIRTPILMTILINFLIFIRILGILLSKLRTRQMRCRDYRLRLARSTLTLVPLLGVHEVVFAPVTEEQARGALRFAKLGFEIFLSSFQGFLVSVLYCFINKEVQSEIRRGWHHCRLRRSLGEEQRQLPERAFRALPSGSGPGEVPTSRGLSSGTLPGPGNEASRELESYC
As to the kind of experiment: cell-based or functional assay.

In test [3] the target is T3, recombinant human glucagon receptor (human, UniProt P47871 26-477). As to the kind of experiment: cell-based or functional assay.
T3 sequence (P47871 26-477): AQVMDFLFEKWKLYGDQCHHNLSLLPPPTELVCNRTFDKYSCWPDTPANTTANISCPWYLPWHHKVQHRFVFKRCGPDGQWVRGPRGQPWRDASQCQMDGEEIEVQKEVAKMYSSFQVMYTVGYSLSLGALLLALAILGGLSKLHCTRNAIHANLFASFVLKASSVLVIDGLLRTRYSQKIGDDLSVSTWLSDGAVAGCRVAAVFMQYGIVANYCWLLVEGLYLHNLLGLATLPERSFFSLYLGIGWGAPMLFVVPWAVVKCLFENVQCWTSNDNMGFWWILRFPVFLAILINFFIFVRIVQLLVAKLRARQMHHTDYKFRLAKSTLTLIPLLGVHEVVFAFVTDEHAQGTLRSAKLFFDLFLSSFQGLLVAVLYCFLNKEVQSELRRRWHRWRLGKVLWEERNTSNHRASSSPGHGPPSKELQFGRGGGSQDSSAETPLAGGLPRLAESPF
In test [4] the target is T1, human Glucagon-Like Peptide-1 receptor. As to the kind of experiment: cell-based or functional assay. This is another data set of the same source.
Test [5] deals with T2, human glucose-dependent insulinotropic …. As to the kind of experiment: cell-based or functional assay. This is another data set of the same source.
Test [6] addresses T3, recombinant human glucagon receptor. Briefly: cell-based or functional assay. The source holds these as a separate data set.
The target of test [7] is T1, human Glucagon-Like Peptide-1 receptor. As to the kind of experiment: cell-based or functional assay. This is another data set of the same source.
Test [8] concerns the target T2, human glucose-dependent insulinotropic …. As to the kind of experiment: cell-based or functional assay. The source holds these as a separate data set.
Test [9] concerns the target T3, recombinant human glucagon receptor. Briefly: cell-based or functional assay. The source holds these as a separate data set.
Test [10] has the same target. Briefly: I-125-Gcg competition SPA, membranes of 293HEK cells expressing hGcg-R. How it is done:
(§1) The specific activity is 2200 Ci/mmol. KD determination is performed by homologous competition or saturation binding analysis.
(§2) The receptor binding assay is carried out using a Scintillation Proximity Assay (SPA) format with wheat germ agglutinin (WGA) beads (Perkin Elmer). The binding buffer contains 25 mM 4-(2-hydroxyethyl)-1-piperazineethanesulfonic acid (HEPES), pH 7.4, 2.5 mM CaCl₂, 1 mM MgCl₂, 0.1% (w/v) bacitracin (Affymetrix), 0.003% (w/v) Polyoxyethylenesorbitan monolaurate (TWEEN®-20) and Roche Complete™ Protease Inhibitors without EDTA.

A further test has as its target T4, mouse glucagon receptor (mouse, UniProt Q61606 27-485).
T4 construct: whole, on cells; Used as membranes of a clonal 293HEK line; also called mGcg-R; mGcgR
As to the kind of experiment: I-125-Gcg competition SPA, membranes of 293HEK cells expressing mGcg-R. As for the experimental part: as §1, §2

The target in the next test is T5, rat glucagon receptor (rat, UniProt P30082 27-485).
T5 construct: whole, on cells; Used as membranes of transiently transfected 293HEK cells; also called rGcg-R; rat Gcg-R
T5 sequence (P30082 27-485): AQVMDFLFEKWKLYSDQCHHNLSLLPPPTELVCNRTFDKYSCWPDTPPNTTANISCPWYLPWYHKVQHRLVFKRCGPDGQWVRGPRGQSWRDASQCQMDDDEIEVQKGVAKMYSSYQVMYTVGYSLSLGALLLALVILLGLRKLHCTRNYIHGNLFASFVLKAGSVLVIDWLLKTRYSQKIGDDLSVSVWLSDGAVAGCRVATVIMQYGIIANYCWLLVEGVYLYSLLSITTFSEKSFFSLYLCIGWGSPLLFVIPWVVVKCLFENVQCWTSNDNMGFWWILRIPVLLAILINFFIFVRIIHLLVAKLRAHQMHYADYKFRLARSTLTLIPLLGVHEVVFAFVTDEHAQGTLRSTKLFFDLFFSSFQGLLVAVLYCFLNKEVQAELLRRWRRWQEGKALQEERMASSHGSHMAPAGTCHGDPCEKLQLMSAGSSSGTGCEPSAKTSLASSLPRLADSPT
Briefly: I-125-Gcg competition SPA, membranes of 293HEK cells expressing rGcg-R. How it is done: as §1, §2

T4 sequence (Q61606 27-485): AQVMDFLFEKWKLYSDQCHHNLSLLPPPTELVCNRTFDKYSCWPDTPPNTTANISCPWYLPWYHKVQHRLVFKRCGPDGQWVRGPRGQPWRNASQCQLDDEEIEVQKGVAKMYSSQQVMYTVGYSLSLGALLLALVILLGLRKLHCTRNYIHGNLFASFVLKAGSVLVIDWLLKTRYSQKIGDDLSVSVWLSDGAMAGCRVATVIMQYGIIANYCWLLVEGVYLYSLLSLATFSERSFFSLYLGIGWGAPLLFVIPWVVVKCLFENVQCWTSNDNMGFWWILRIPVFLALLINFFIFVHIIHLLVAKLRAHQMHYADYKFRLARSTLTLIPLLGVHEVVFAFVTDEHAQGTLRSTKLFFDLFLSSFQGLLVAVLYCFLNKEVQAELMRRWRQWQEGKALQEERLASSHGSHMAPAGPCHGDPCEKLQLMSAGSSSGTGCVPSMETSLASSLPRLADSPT

B1: Example 3 (peptide)
peptide: YXQGTFLSDYSKYLDXKKAXEFVEWLLETGPSSGAPPPS
modifications: Aib at positions 2 and 16; K20 epsilon-amino group conjugated with ([2-(2-Amino-ethoxy)-ethoxy]-acetyl)2-(γGlu)2-CO-(CH2)16-CO2H; C-terminal primary amide
The Ki is a measure of affinity in units of concentration, obtained from inhibition or displacement. In the case of B1, the “EC50, intracellular cAMP (HTRF)” value in test [1] is above 100000 pM. Besides, the “EC50, intracellular cAMP (HTRF)” value in test [2] is above 500000 pM. Also, the “EC50, intracellular cAMP (HTRF)” value in [3] came out at 3.4 pM. In test [4], the “EC50, cAMP, GLP-1 Receptor Assay; sample T7-4 C.-4 wk” value is above 100000 pM; the “EC50, cAMP, GLP-1 Receptor Assay; sample T7-40 C.-4 wk” value was above 100000 pM; the “EC50, cAMP, GLP-1 Receptor Assay; sample T7m-4 C.-4 wk” value was above 100000 pM; the “EC50, cAMP, GLP-1 Receptor Assay; sample T7m-40 C.-4 wk” value was above 100000 pM. In test [5], the “EC50, cAMP, GIP Receptor Assay; sample T7-4 C.-4 wk” value was above 100000 pM; the “EC50, cAMP, GIP Receptor Assay; sample T7-40 C.-4 wk” value was above 100000 pM; the “EC50, cAMP, GIP Receptor Assay; sample T7m-4 C.-4 wk” value was above 100000 pM; the “EC50, cAMP, GIP Receptor Assay; sample T7m-40 C.-4 wk” value was above 100000 pM. Further, in test [6], the “EC50, cAMP, Gcg Receptor Assay; sample T7-4 C.-4 wk” value is 14.3 pM; the “EC50, cAMP, Gcg Receptor Assay; sample T7-40 C.-4 wk” value is 24.9 pM; the “EC50, cAMP, Gcg Receptor Assay; sample T7m-4 C.-4 wk” value turned out to be 21.1 pM; the “EC50, cAMP, Gcg Receptor Assay; sample T7m-40 C.-4 wk” value is 21.1 pM. Besides, in [7], the “EC50, cAMP, GLP-1 Receptor Assay; sample C6.5-4 C.-4 wk” value was above 100000 pM; the “EC50, cAMP, GLP-1 Receptor Assay; sample C6.5-40 C.-4 wk” value was above 100000 pM; the “EC50, cAMP, GLP-1 Receptor Assay; sample C6.5MT-4 C.-4 wk” value is above 100000 pM; the “EC50, cAMP, GLP-1 Receptor Assay; sample C6.5MT-40 C.-4 wk” value was above 100000 pM. Also, in test [8], the “EC50, cAMP, GIP Receptor Assay; sample C6.5-4 C.-4 wk” value was above 100000 pM; the “EC50, cAMP, GIP Receptor Assay; sample C6.5-40 C.-4 wk” value was above 100000 pM; the “EC50, cAMP, GIP Receptor Assay; sample C6.5MT-4 C.-4 wk” value is above 100000 pM; the “EC50, cAMP, GIP Receptor Assay; sample C6.5MT-40 C.-4 wk” value is above 100000 pM. Further, in [9], the “EC50, cAMP, Gcg Receptor Assay; sample C6.5-4 C.-4 wk” value amounted to 36.9 pM; the “EC50, cAMP, Gcg Receptor Assay; sample C6.5-40 C.-4 wk” value is 25.7 pM; the “EC50, cAMP, Gcg Receptor Assay; sample C6.5MT-4 C.-4 wk” value was 19.3 pM; the “EC50, cAMP, Gcg Receptor Assay; sample C6.5MT-40 C.-4 wk” value was found to be 21.4 pM. Also, the Ki in test [10] was determined as 287 pM. The molecule further showed a Ki with mouse glucagon receptor of 174 pM. Moreover, the inhibition constant (Ki) in the test with rat glucagon receptor was found to be 1560 pM.

B2: Example 7 (peptide)
peptide: YXQGTFTSDYSKYLDXKKAXEFVAWLLEE
modifications: Aib at positions 2 and 16; K20 epsilon-amino group conjugated with ([2-(2-Amino-ethoxy)-ethoxy]-acetyl)2-(γGlu)1-CO-(CH2)18-CO2H; C-terminal acid
On to B2, for which the “EC50, intracellular cAMP (HTRF)” value was above 100000 pM in test [1], above 500000 pM in test [2] and 16.6 pM in [3]. The Ki in test [10] turned out to be 673 pM; with mouse glucagon receptor, 753 pM; in the test with rat glucagon receptor, 1380 pM.

B3: Example 6 (peptide)
peptide: YXQGTFTSDYSKYLDXKKAXEFVAWLLEE
modifications: Aib at positions 2 and 16; K20 epsilon-amino group conjugated with ([2-(2-Amino-ethoxy)-ethoxy]-acetyl)2-(γGlu)1-CO-(CH2)16-CO2H; C-terminal acid
On to B3, for which the “EC50, intracellular cAMP (HTRF)” value was above 100000 pM in [1], above 500000 pM in test [2] and 4.13 pM in test [3]. Also, the Ki in test [10] was 316 pM; with mouse glucagon receptor it was 123 pM; in the test with rat glucagon receptor it was 980 pM.

B4: human GIP(1-42)NH2 (peptide)
peptide: YAEGTFISDYSIAMDKIHQQDFVNWLLAQKGKKNDWKHNITQ-NH2
Turning to B4, the “EC50, intracellular cAMP (HTRF)” value in test [3] is above 10000 pM.
